Test results taken from US20230055411A1 (UNIVERSIT DE BRETAGNE OCCIDENTALE UBO, published 2023).

Key:
[1] = molecular target: T1, recombinant STIM1 EF/SAM peptide (STIM1 aa 58 to 201) (human, UniProt Q13586 58-201); assay: Octet (BLI), 1 to 1 fitting model, EF-SAM peptide at 200, 133.5 and 88.9 nM
T1 construct: also called STIM1 EF/Hand peptide; soluble recombinant protein corresponding to the STIM1 EF-Hand domain
Method: (§1) FIG. 10 represents the determination of the anti-STIM1 mAb clone B-Y12 affinity. […] High affinity interaction is characterized by a low K, a fast recognizing (high kon) and a stable formation of complexes (low kdis). kdis: dissociation rate constant. kon: complex formation rate.
(§2) Affinity constants (Kon, Kdis) were calculated.

[2] = molecular target: T2, STIM1 peptide 1A (STIM1 amino acids 128 to 168) (human, biotinylated in the ELISA of FIG. 3A (position not given)); assay: ELISA, Peptide 1A (aa 128-168) coated at 1 µg/mL, B-Y12 titrated
T2 construct: Immunization peptide from the SAM domain of STIM1
T2 sequence (peptide, as listed by the source): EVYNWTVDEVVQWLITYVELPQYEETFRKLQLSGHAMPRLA
Method: (§3) FIG. 3 illustrated the validation by Elisa of the monoclonal anti-STIM1 antibody clone B-Y12. […] Anti-STIM1 mAb clone B-Y12 mAb (10 μg/ml) was diluted to 1/10 and antigens STIM1 biotinylated peptides used at concentrations of 50 ng/well for peptides 1A and 1B and 100 ng/well for peptide 2A and 10 ng/well for peptide 2B). Panel B: Specificity of the B-Y12 antibody for STIM1 is confirmed by ELISA using the peptide 1A and a recombinant STIM1 EF/SAM peptide (1 μg/mL). B-Y12 mAb used at 100 μg/mL diluted to 1/10. Panel C: Specificity for the B-Y12 antibody for the peptide 1A over the other peptides (1A, 1B, 2A, 2B, C2, C3, C4, C5, C6, C7 and C8. Peptides are used at a concentration of 1 μg/mL. Histograms represents mean optical density (OD) measured using an Elisa approach.

[3] = molecular target: T1, recombinant STIM1 EF/SAM peptide (STIM1 …); assay: Octet, 1 to 1 fitting model, EF-SAM peptide at 200 nM [table row 200]
Method: as §1, §2

peptide 1B = molecular target: T3, peptide 1B (biotinylated in the ELISA of Figure 3 panel A); assay: ELISA, biotinylated peptide 1B at 50 ng/well, B-Y12 in 1/10 steps
T3 construct: also called STIM1 aa 169 to 197
T3 sequence (peptide, as listed by the source): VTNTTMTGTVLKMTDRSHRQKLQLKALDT
Method: as §3

peptide 2B = molecular target: T4, peptide 2B (biotinylated in the ELISA of Figure 3 panel A); assay: ELISA, biotinylated peptide 2B at 10 ng/well, B-Y12 in 1/10 steps
T4 construct: also called STIM1 aa 97 to 127
T4 sequence (peptide, as listed by the source): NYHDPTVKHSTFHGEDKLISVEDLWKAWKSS
Method: as §3

peptide 2A = molecular target: T5, peptide 2A (biotinylated in the ELISA of Figure 3 panel A); assay: ELISA, biotinylated peptide 2A at 100 ng/well, B-Y12 in 1/10 steps
T5 construct: also called STIM1 aa 62 to 95
T5 sequence (peptide, as listed by the source): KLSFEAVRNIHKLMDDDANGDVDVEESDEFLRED
Method: as §3

[4] = molecular target: T1, recombinant STIM1 EF/SAM peptide (STIM1 …); assay: Octet, 1 to 1 fitting model, EF-SAM peptide at 88,8 nM [table row 88,8]
Method: as §1, §2

[5] = molecular target: T1, recombinant STIM1 EF/SAM peptide (STIM1 …); assay: Octet, 1 to 1 fitting model, EF-SAM peptide at 133,5 nM [table row 133,5]
Method: as §1, §2

[6] = molecular target: T1, recombinant STIM1 EF/SAM peptide (STIM1 …); assay: Octet, 1 to 1 fitting model, EF-SAM peptide at 200 nM; column kdis(1/S) [table row 200]
Method: as §1, §2

[7] = molecular target: T1, recombinant STIM1 EF/SAM peptide (STIM1 …); assay: Octet, 1 to 1 fitting model, EF-SAM peptide at 88,8 nM; column kdis(1/S) [table row 88,8]
Method: as §1, §2

[8] = molecular target: T1, recombinant STIM1 EF/SAM peptide (STIM1 …); assay: Octet, 1 to 1 fitting model, EF-SAM peptide at 133,5 nM; column kdis(1/S) [table row 133,5]
Method: as §1, §2

[9] = molecular target: T6, STIM1 protein, mouse (plasma membrane STIM1 on spleen B and T cells of MRL/Lpr and C57Bl/6 mice) (mouse, UniProt P70302 23-685); assay: direct flow cytometry with PE coupled B-Y12, spleen B cells of MRL/Lpr mice (n=4) [B cells]
T6 construct: whole, on cells; also called mSTIM1 (mouse)
T6 sequence (P70302 23-685): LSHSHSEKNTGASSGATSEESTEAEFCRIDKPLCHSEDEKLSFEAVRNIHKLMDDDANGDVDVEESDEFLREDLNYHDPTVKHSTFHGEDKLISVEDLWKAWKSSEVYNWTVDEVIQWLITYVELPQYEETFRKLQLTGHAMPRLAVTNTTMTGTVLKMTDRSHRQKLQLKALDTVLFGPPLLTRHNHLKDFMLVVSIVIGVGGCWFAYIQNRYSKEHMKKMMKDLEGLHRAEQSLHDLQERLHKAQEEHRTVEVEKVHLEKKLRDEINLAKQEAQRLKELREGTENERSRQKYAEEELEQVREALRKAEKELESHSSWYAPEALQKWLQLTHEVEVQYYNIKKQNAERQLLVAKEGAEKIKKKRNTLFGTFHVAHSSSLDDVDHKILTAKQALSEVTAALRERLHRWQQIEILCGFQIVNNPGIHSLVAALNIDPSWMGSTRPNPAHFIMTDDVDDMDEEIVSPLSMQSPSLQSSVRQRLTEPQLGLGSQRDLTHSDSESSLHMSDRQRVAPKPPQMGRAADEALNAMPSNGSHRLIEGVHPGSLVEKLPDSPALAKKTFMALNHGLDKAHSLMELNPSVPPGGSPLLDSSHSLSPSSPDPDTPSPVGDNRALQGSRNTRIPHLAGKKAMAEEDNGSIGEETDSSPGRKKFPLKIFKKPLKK

T1 sequence (Q13586 58-201): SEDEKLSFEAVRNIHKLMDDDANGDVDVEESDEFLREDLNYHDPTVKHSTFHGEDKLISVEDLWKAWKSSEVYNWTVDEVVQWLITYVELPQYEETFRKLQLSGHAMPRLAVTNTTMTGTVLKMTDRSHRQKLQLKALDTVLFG

B1: monoclonal anti-STIM1 antibody clone B-Y12 (antibody, IgG2b, V domains shown)
VH: QVQLQQPGAELVKPGASVKLSCKASGYTFTSYWMHWVKLRPGQGFEWIGETNPRNGGTNYNEKFKRKATLTVDKSSSTAYMQLSSLTSEDSAVYYCTITKTVRATWYFDYWGQGTTLTVSS
VL: DVLMTQTPLSLPVSLGDQASISCRSSQSIVHSNGNTYLEWYLQKPGQSPKLLIYKVSNRFSGVPDRFSGSGSGTDFTLKISRVEAEDLGVYYCFQGSHVPYTFGGGTKLEIK
notes: In direct flow cytometry it was used coupled to phycoerythrin (PE); also called B-Y12 mAb; anti-STIM1 mAb clone B-Y12
Kd [1]: 15 nM | EC50 (read off the curve) [2]: ~4 ng/mL | kon [3]: 20000 M⁻¹ s⁻¹ | binding result (peptide 1B): no binding | binding result (peptide 2B): no binding | binding result (peptide 2A): no binding | kon [4]: 18800 M⁻¹ s⁻¹ | kon [5]: 23700 M⁻¹ s⁻¹ | koff [6]: 0.0004 s⁻¹ | koff [7]: 0.000354 s⁻¹ | koff [8]: 0.000322 s⁻¹ | binding result [9]: binds
